Results published in US20250032566A1 (YEDA RESEARCH AND DEVELOPMENT, published 2025).

What was measured:
[1] = biological target: T1, ThsA (Thoeris defense system protein) (UniProt J8G6Z1 1-476); experiment: His-tag pulldown on Ni-NTA magnetic beads from E. coli lysate co-expressing TAD1-His, ThsA and ThsB; SDS-PAGE
T1 construct: Expressed from pBAD as a ThsA-ThsB operon in E. coli MG1655; also called Thoeris (ThsA/B)
T1 sequence: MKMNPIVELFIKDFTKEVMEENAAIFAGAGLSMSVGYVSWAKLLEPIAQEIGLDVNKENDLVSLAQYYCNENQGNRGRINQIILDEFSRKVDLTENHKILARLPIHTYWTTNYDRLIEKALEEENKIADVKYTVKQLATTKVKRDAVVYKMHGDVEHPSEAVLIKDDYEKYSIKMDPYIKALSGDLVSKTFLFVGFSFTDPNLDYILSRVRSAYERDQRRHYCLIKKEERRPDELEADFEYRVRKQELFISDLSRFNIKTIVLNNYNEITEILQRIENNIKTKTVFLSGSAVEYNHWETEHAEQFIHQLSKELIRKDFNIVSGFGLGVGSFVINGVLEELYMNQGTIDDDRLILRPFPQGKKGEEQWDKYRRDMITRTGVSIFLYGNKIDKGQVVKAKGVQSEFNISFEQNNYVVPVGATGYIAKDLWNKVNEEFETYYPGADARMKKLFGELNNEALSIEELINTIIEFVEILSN

[2] = biological target: T2, ThsB (Thoeris defense system TIR-domain protein) (UniProt J8G8J6 1-192); experiment: as above
T2 construct: Expressed from pBAD as a ThsA-ThsB operon in E. coli MG1655; also called Thoeris (ThsA/B)
T2 sequence: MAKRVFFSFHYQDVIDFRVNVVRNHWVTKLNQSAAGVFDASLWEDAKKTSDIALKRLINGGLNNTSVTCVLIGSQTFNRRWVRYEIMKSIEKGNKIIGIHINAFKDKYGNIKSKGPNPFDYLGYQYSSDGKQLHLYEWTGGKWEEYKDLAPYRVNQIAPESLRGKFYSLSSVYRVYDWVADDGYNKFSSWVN

B1: TAD1 (Thoeris Anti Defense 1) from phage SBSphiJ7 with a C-terminal His-tag (other)
chain: MRELKHELLPTRHTQVFHEDKDKMEFNAPHHFVVVPAGSPLVDQQIHYGRGGNSKKVTVKDFAGKLATVNFQLGPVTEHGANGVMNEDLIAMVITRLQYFQNSEFNCRENAMAITKLEEALMWLNKRTAEREQRGVEGTHEK
notes: Co-expressed with ThsA and ThsB in E. coli MG1655 and pulled down on Ni-NTA magnetic beads; also called TAD1-His; His-TAD1; not shown: C-terminal His-tag
B1: no binding [1]; no binding [2].
